# In US20130059773A1, “COMPOUNDS FOR THE TREATMENT OF INFLAMMATION AND NEUTROPENIA” (priority 2010, published 2013):
# T1: procaspase-9 (Homo sapiens, UniProt P55211)
# T1 construct: using neutrophil cytosol containing all the apoptosome components, i.e., procaspase-9; endogenous in cells; host or cells: neutrophil cytosol (primary neutrophils)
# T1 sequence (P55211 1-416): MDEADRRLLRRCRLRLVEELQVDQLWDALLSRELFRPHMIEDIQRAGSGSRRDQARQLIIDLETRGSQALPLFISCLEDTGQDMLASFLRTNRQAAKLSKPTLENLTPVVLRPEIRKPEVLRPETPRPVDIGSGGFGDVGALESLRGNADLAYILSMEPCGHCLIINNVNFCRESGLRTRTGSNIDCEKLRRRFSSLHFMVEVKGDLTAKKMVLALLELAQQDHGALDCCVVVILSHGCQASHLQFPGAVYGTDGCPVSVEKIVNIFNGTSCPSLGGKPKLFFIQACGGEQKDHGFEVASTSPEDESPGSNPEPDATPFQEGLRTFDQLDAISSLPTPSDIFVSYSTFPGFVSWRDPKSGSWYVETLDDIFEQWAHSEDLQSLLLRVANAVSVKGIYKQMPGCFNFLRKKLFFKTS
# Key:
# neutrophils [1] = test: Neutrophils isolated from G-CSF-treated healthy donors: PCNA content and constitutive apoptosis; type: in vivo, human
# Method: Neutrophil isolation, granulocytic differentiation of CD34^+ precursors and cell culture. Human neutrophils from healthy (Etablissement Francais du Sang, Paris) or G-CSF-treated healthy donors ([…] for 5 days to induce hematopoietic stem cells mobilization) (Biotherapy Department, Necker Hospital, France) were isolated from EDTA-anticoagulated blood, using density-gradient centrifugation through polymorphoprep (Nycomed), as described in Witko-Sarsat et al. (1999, Blood 94:2487-2496). […]
# (§1) Western blot analysis and co-immunoprecipitation experiments. Neutrophils were sonicated and cytosolic proteins were analyzed using either the PC10 mAb or the Ab5 pAb anti-PCNA according to standard immunoblot procedures (Moriceau et al. 2009, J. Immunol. 182:7254-7263). […] The sample was eluted from the column with […] 5× sample buffer and analyzed by Western blotting using different mAb to potential partners. PCNA was detected on the Western blot with the PC10 mAb and procaspases were detected with either anti-procaspase-8 (Calbiochem) mAb or mouse anti-procaspase-10 (Santa Cruz) or anti-procaspase-9 (Santa Cruz) or anti-procaspase-3 (Santa Cruz) mAbs, followed by horseradish peroxidase-conjugated anti-mouse IgG (Nordic Immunology diluted 1:5000), using the SuperSignal West Pico detection kit (Pierce).
# neutrophils [2] = test: Neutrophil apoptosis/survival by phosphatidylserine externalization after annexin-V and 7-AAD labeling; type: cell-based, human; details: G-CSF 200 or 1000 U/ml, 15 h at 37° C.
# Method: Analysis of apoptosis. Neutrophil apoptosis was triggered by incubating neutrophils at 37° C. alone (constitutive apoptosis) or with anti-Fas mAb (10 ng/ml; Beckman-Coulter) or gliotoxin ([…]; Sigma) (Ward et al. 1999, J. Biol. Chem. 274:4309-4318) for the indicated times. Neutrophil apoptosis was evaluated by phosphatidylserine externalization after annexin-V and 7-AAD labeling (Kantari et al. 2007, Blood 110:4086-4095); mitochondrial depolarization after DiOC6 labeling (Moriceau et al. 2009, J. Immuno1.182:7254-7263); caspase-3 and caspase-8 activities measured by spectrophotometry (Biovision) in neutrophil lysates. In DMF-differentiated-PLB985 cells, apoptosis was triggered by gliotoxin or by rTRAIL (10 ng/ml; RD System) (Yin et al. 2005, Int. J. Biochem. Cell Biol. 37:1696-1708) and caspase-8 and caspase-9 activities were determined after gating on CD11b^+ cells using the Caspase-Glow® assay (Promega). Apoptosis-induced chromatin condensation and DNA fragmentation were assessed, respectively, after DNA staining with the blue fluorescent dye Hoechst (5 mg/ml) and propidium-iodide staining (Goepel et al. 2004, J. Leukoc. Biol. 75:836-843). Carboxyp21 ([…], SEQ ID NO: 24) corresponding to the p21 carboxy-terminus sequence (residues 141-160) and containing a RYIRS carboxy-terminal extension to facilitate its cell entry was synthesized and purified (Genecust). […]
# PCNA = PCNA expression in neutrophils by Western blot; type: cell-based, human; details: G-CSF 1000 U/ml, 6 h to 15 h
# Method: as §1, with “182:7254-7263). Co-immunoprecipitation experiments were performed using neutrophil cytosols obtained by cavitation (Witko-Sarsat et al. 1999, Blood 94:2487-2496). Cytosol ([…]) was mixed with […] of protein G and Ab5 pAb and incubated for 30 min at 4° C. under shaking. The sample was loaded onto a column containing Sepharose-coated magnetic beads (Milteny), washed with a stringent washing buffer (50 mM Tris, 500 mM NaCl, 1% NP-40, 0.5% Triton X-100).” for “182:7254-7263).”
# procaspase-9 = target: T1, procaspase-9; test: In vitro procaspase-9 activation assay using neutrophil cytosol, cytochrome c and dATP; type: biochemical; set-up: dose or concentration left out as unconfirmed
# Method: That hypothesis was tested by evaluating procaspase-9 cleavage in an in vitro assay, using neutrophil cytosol containing all the apoptosome components, i.e., procaspase-9 and apoptotic protease-activating factor-1 (Apaf-1) as previously described (McStay et al. 2008; Cell Death Differ. 15:322-331).
Molecule,"PCNA content of neutrophils from treated donors (immunoblotting) (neutrophils [1]; healthy donors treated with G-CSF for 5 days, compared to before treatment)","Constitutive apoptosis of neutrophils from treated donors (neutrophils [1]; healthy donors treated with G-CSF, 15-h culture)",Neutrophil survival (annexin-V− 7-AAD− cells) (neutrophils [2]),Effect on decrease of PCNA expression during incubation at 37° C. (PCNA),Procaspase-9 cleavage / activation (procaspase-9)
"G-CSF: survival factor extending neutrophil longevity (protein, UniProt P09919 31-207, looked up) Granulocyte …: TPLGPASSLPQSFLLKCLEQVRKIQGDGAALQEKLVSECATYKLCHPEELVLLGHSLGIPWAPLSSCPSQALQLAGCLSQLHSGLFLYQGLLQALEGISPELGPTLDTLQLDVADFATTIWQQMEELGMAPALQPTQGAMPAFASAFQRRAGGVLVASHLQSFLEVSYRVLRHLAQP",markedly increased,decreased tendency of these neutrophils to undergo constitutive apoptosis,prolonged neutrophil survival,totally prevented,–
"Ovalbumin: control protein tested at the same concentration (protein, UniProt P01012 2-386, looked up) Ovalbumin: GSIGAASMEFCFDVFKELKVHHANENIFYCPIAIMSALAMVYLGAKDSTRTQINKVVRFDKLPGFGDSIEAQCGTSVNVHSSLRDILNQITKPNDVYSFSLASRLYAEERYPILPEYLQCVKELYRGGLEPINFQTAADQARELINSWVESQTNGIIRNVLQPSSVDSQTAMVLVNAIVFKGLWEKAFKDEDTQAMPFRVTEQESKPVQMMYQIGLFRVASMASEKMKILELPFASGTMSMLVLLPDEVSGLEQLESIINFEKLTEWTSSNVMEERKIKVYLPRMKMEEKYNLTSVLMAMGITDVFSSSANLSGISSAESLKISQAVHAAHAEINEAGREVVGSAEAGVDAASVSEEFRADHPFLFCIKHIATNAVLFFGRCVSP",–,–,–,–,did not affect pro-caspase 9 activation
